Assay results published in IntAct's records for PubMed 25789606.

B1: Ameloblastin (Homo sapiens), Q9NP70 (parent)
chain: MSASKIPLFKMKDLILILCLLEMSFAVPFFPQQSGTPGMASLSLETMRQLGSLQRLNTLSQYSRYGFGKSFNSLWMHGLLPPHSSLPWMRPREHETQQYEYSLPVHPPPLPSQPSLKPQQPGLKPFLQSAAATTNQATALKEALQPPIHLGHLPLQEGELPLVQQQVAPSDKPPKPELPGVDFADPQGPSLPGMDFPDPQGPSLPGLDFADPQGSTIFQIARLISHGPMPQNKQSPLYPGMLYVPFGANQLNAPARLGIMSSEEVAGGREDPMAYGAMFPGFGGMRPGFEGMPHNPAMGGDFTLEFDSPVAATKGPENEEGGAQGSPMPEANPDNLENPAFLTELEPAPHAGLLALPKDDIPGLPRSPSGKMKGLPSVTPAAADPLMTPELADVYRTYDADMTTSVDFQEEATMDTTMAPNSLQTSMPGNKAQEPEMMHDAWHFQEP

Variants of: B1
Conditions: with fa20c_human FAM20C

Effect of a mutation on the interaction, with no effect:
S34A
S41A
T46A
T36A
